Assay results: patent US5824869

What was measured:
[1] = biological target: Rs-AFP1 (Raphanus sativus antifungal protein 1) (Raphanus sativus)
[2] = biological target: Rs-AFP2 (Raphanus sativus antifungal protein 2) (Raphanus sativus)

| Substance | antifungal activity on Fusarium culmorum after digestion with the protease [1] [fold] | antifungal activity on Fusarium culmorum after digestion with the protease [2] [fold] |
| --- | --- | --- |
| chymotrypsin (enzyme) | 10 | 10 |
| pronase E (enzyme) | 10 | 10 |
| proteinase K (from UniProt P06873) (enzyme) | 10 | 10 |
| trypsin (enzyme) | 10 | 10 |
